Columns and labels:
Assay in all cases: Batched (one-pot) yeast mating assay, barcode sequencing
Format in all cases: cell-based
Bfl1 = target: T1, Bfl1 (Homo sapiens, UniProt Q16548); conditions: vs Bfl1
T1 sequence (Q16548 1-175): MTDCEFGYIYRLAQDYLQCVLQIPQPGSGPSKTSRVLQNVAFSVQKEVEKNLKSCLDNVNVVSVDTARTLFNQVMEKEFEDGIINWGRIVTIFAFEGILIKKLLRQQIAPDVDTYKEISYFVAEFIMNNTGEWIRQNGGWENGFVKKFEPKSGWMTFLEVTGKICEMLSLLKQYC
Procedure: (§1) For a many-to-many (also see Example 6) batched mating assay, multiple haploid yeast strains of each mating type are combined in a fresh 3 mL YPD culture. The recombinant MATa yeast strains are added in equal concentrations for a total density of 100 cells/μL and the recombinant MATalpha yeast strains are added in equal concentrations for a total density of 600 cells/μL. After 6 hours of growth, hygromycin is added at 100 ng/μL and β-estradiol (PE) is added at 200 ng/μL. 20 hours after the initial culture inoculation, 1 mL of cells are pelleted. 2 μL of cells are removed from the pellet, lysed with 0.2% SDS, spun down to remove all cellular debris, and diluted in water. The lysate is then used as a template for a PCR with standard primers containing overhangs for next generation sequencing and the PCR product, expected to be 650 bases, is purified from a gel slice. Paired-end next generation sequencing is then performed. The frequency that a particular pair of barcodes is observed relative to the total number of reads provides a relative measure for the number of matings that were caused by the SAP pair associated with those two particular barcodes.
(§2) LIBRARY MATING ASSAYS: For library mating assays in which each isogenic strain was constructed individually and the barcode associated with each synthetic adhesion protein was determined with Sanger sequencing, one or both of the isogenic haploid strains from a one-to-one mating were replaced with a library of strains, all of the same mating type, displaying unique barcoded synthetic adhesion proteins. Each haploid strain in the library is individually grown to saturation, evaluated for surface expression strength as described previously, and mixed in equal volumes. 2.5 μL, if a MATa library, or 5 μL, if a MATalpha library, were then added to a mating as before. Following a 17 hour incubation, 100 μL were added to 50 mL of YPD with […] hygromycin and 100 nM β-estradiol (many-to-many matings only). After growing to saturation, cells were harvested by centrifugation, and lysed by heating to 70° C. for 5 min in 200 mM LiOAc and 1% SDS. Cellular debris was removed and incubated at 37° C. for 4 hours with 0.05 mg/mL RNase A. An ethanol precipitation was then performed to purify and concentrate the genomic DNA. A primary qPCR is performed to amplify the barcode region with standard adaptors and the PCR product is used as a template for a secondary qPCR to attach an index barcode and standard Illumina adaptors. This fragment is gel extracted, quantified with a Qubit and analyzed on a MiSeq next generation sequencer.
(§3) One-pot protein library characterization. A barcoding and recombination scheme was developed for the analysis of whole protein interaction networks in a single pot. Single MATa and MATα parent strain, yNGYSDa and yNGYSDα, were constructed and barcoded SAP cassettes were transformed into the strains. In addition to the knockout of Sag1 in both parent strains and complementary lysine and leucine markers, yNGYSDa contains a CRE recombinase expression cassette with an inducible promoter, pZ4. yNGYSDα constitutively expresses ZEV4, an activator of the pZ4 promoter with an estradiol binding domain for nuclear localization. SAP cassettes were assembled in one of two standardized vectors, pNGYSDa or pNGYSDα, for integration into the corresponding yeast parent strain. In addition to the surface expression cassette, each vector backbone contains a mating type specific florescent reporter cassette, a randomized ten-nucleotide barcode, a mating type specific primer binding site, and a lox recombination site. Upon mating, the addition of β-Estradiol (βE) induces CRE recombinase expression in diploid cells, consolidating the barcodes from each haploid chromosome so that next-generation sequencing can be used to count the frequency of interacting SAP pairs (FIG. 16A). […]

BclW = target: T2, BclW (Homo sapiens, UniProt Q92843); conditions: vs BclW
T2 sequence (Q92843 1-193): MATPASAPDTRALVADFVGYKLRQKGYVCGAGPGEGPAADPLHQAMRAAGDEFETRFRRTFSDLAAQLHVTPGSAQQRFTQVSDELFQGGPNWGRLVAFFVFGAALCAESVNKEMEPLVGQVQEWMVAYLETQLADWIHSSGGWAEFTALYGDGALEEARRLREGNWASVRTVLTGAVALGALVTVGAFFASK
Procedure: as §1, §2, §3

Bcl2 = Bcl2 (Homo sapiens, UniProt P10415); conditions: vs Bcl2
Procedure: as §1, §2, §3

Sequence of Bcl2 (P10415 whole entry, species assumed): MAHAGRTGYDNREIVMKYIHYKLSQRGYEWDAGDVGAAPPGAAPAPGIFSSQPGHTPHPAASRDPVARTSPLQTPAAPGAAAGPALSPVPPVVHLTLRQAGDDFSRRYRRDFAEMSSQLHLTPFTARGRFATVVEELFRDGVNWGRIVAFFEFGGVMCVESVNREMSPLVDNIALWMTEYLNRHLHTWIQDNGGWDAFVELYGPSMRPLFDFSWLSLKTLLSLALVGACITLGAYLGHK

| Substance | binding in batched mating (interaction profile, in words) (Bfl1) | binding in batched mating (interaction profile, in words) (BclW) | binding in batched mating (interaction profile, in words) (Bcl2) |
| --- | --- | --- | --- |
| Puma: natural BH3 domain peptide binder of Bcl2 family proteins (EEQWAREIGAQLRRMADDLNAQYERR) | nonspecifically | nonspecifically | nonspecifically |
| Noxa: natural BH3 domain peptide binder of Bcl2 family proteins (PAELEVECATQLRRFGDKLNFRQKLL) | high specificity |  |  |
| Bim: natural BH3 domain peptide binder of Bcl2 family proteins | nonspecifically | nonspecifically | nonspecifically |

Reference: patent US11820970B2, “High throughput protein-protein interaction screening in yeast liquid culture” (University of Washington, priority 2016, dated 2023)
